Consider one molecule from article PMC5519724, “Direct binding to GABARAP family members is essential for HIV-1 Nef plasma membrane localization” (Scientific Reports, 2017).

The target in the experiment is T1, recombinant HIV-1 Nef (SF2) with C-terminal hexahistidine tag (HIV-1 (SF2), UniProt P03407).
T1 construct: also called Nef protein; Nef-Sepharose
As to the kind of experiment: SPR; in vitro; estimate of the affinity; who was immobilised and the conditions are not told in the text (Supplementary Fig. 5). The conditions noted are these: both partners purified.

T1 sequence (P03407 whole entry): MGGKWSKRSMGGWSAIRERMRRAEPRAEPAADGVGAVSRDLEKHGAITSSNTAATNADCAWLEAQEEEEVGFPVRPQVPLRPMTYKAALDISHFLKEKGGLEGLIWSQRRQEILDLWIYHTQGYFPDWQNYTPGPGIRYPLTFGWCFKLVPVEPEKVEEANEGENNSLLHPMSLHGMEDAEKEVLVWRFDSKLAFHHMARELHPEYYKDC

B1: recombinant human GABARAP (natural protein)
chain: MKFVYKEEHPFEKRRSEGEKIRKKYPDRVPVIVEKAPKARIGDLDKKKYLVPSDLTVGQFYFLIRKRIHLRAEDALFFFVNNVIPPTSATMGQLYQEHHEEDFFLYIAYSDESVYGL
notes: also called 15N-GABARAP; [U-15N]-GABARAP
For orientation: Kd means the equilibrium constant for the complex coming apart. Take B1: the dissociation constant Kd was roughly 20 µM.
